Measured values taken from IntAct's records for PubMed 11102519.

B1: Transmembrane 4 L6 family member 1 (Homo sapiens), P30408 (parent)
chain: MCYGKCARCIGHSLVGLALLCIAANILLYFPNGETKYASENHLSRFVWFFSGIVGGGLLMLLPAFVFIGLEQDDCCGCCGHENCGKRCAMLSSVLAALIGIAGSGYCVIVAALGLAEGPLCLDSLGQWNYTFASTEGQYLLDTSTWSECTEPKHIVEWNVSLFSILLALGGIEFILCLIQVINGVLGGICGFCCSHQQQYDC
partner: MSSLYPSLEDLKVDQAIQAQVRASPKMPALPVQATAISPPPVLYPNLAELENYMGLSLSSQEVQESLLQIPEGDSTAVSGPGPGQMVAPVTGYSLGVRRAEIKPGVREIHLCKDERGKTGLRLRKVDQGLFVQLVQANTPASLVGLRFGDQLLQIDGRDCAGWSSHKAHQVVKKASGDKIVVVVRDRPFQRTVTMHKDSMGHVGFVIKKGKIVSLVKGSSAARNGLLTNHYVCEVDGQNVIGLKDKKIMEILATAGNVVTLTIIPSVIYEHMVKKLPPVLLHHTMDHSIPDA

Variants of: B1
Details: with sdcb2_human SDCBP2, Q9H190

Row | Variant | effect of a mutation on the interaction
1 | MCYGKCARCIGHSLVGLALLCIAANILLYFPNGETKYASENHLSRFVWFFSGIVGGGLLMLLPAFVFIGLEQDDCCGCCGHENCGKRCAMLSSVLAALIGIAGSGYCVIVAALGLAEGPLCLDSLGQWNYTFASTEGQYLLDTSTWSECTEPKHIVEWNVSLFSILLALGGIEFILCLIQVINGVLGGICGFCCSHQQQYDG [C202G] | disrupting interaction strength
